Data on 14 molecules can be found in patent US20240287138A1, “CYCLIC PEPTIDES FOR INHIBITING TNF RECEPTOR 1 ACTIVITY” (Merck Sharp & Dohme LLC, priority 2023, published 2024).

The assay has as its target C'-terminally 6His-tagged human soluble TNFR1 (sTNFR1, residues 1-211) (human). The assay can be described thus: TR-FRET displacement of biotinylated peptide SEQ ID NO. 1 from sTNFR1-6His.

What is called IC50 is the concentration needed to halve the response being measured. Read a low IC50 as higher potency.

Numbered stars: 1 amine (or outer) side, 2 acyl side, 3 side chain; on linkers, the order of the positions; unused ones are H or OH. Bridge positions count the residues as written; N and C are the ends. Square brackets hold non-standard residues; d marks the D form. Primed or numbered codes have the meaning given here. bhcLeu = (1R,3S)-3-aminocyclopentane-1-carboxylic acid, O=C([C@@H]1CC[C@H](N[*:1])C1)[*:2]; FX1 = N5-(Pyridin-3-yl)-L-glutamine, O=C(CC[C@H](N[*:1])C(=O)[*:2])Nc1cccnc1; Ala(2-carboxypyrimidin-5-yl) = N[C@@H](Cc1cnc(C(=O)O)nc1)C(=O)O; Trp(βS-Me,7-OMe) = COc1cccc2c([C@H](C)[C@H](N)C(=O)O)c[nH]c12; NEtdA = N-ethyl-D-alanine, CCN([C@H](C)C(=O)[*:2])[*:1]; Trp(βS-Me) = C[C@@H](c1c[nH]c2ccccc12)[C@H](N)C(=O)O; Trp(7-Cl) = N[C@@H](Cc1c[nH]c2c(Cl)cccc12)C(=O)O; Phe(4-CONH2) = NC(=O)c1ccc(C[C@H](N)C(=O)O)cc1; Phe(4-COOH) = N[C@@H](Cc1ccc(C(=O)O)cc1)C(=O)O; Trp(7-aza) = N[C@@H](Cc1c[nH]c2ncccc12)C(=O)O; Phe(4-CH2NH2) = NCc1ccc(C[C@H](N)C(=O)O)cc1; Pip(5R-OH) = O=C(O)[C@@H]1CC[C@@H](O)CN1; αMeW = C[C@](N)(Cc1c[nH]c2ccccc12)C(=O)O; Ala(2-furyl) = N[C@@H](Cc1ccco1)C(=O)O; 2Nal = N[C@@H](Cc1ccc2ccccc2c1)C(=O)O; Val(3-OH) = CC(C)(O)[C@H](N)C(=O)O; Pip(4-aza) = O=C(O)[C@@H]1CNCCN1; 3Pal = N[C@@H](Cc1cccnc1)C(=O)O; 4Pal = N[C@@H](Cc1ccncc1)C(=O)O; NMeE = CN[C@@H](CCC(=O)O)C(=O)O; dHyp = O=C(O)[C@H]1C[C@H](O)CN1; NMeS = CN[C@@H](CO)C(=O)O; αMeS = C[C@](N)(CO)C(=O)O; Nle = CCCC[C@H](N)C(=O)O; Pip2c = not defined here; dNMeA = CN[C@H](C)C(=O)O; Ahp′ = not defined here; Dap = NC[C@H](N)C(=O)O; Sar = CNCC(=O)O

B1: SEQ ID NO. 236 (peptide)
peptide: {CH2CO}-[Nle][4Pal][Pip(4-aza)]W[dP]N[Ala(2-furyl)][Trp(7-Cl)][αMeS][Phe(4-COOH)]Y[Sar][Trp(βS-Me,7-OMe)]C-NH2
modifications: thioether N-14
SMILES: CCCC[C@@H]1NC(=O)CSC[C@@H](C(N)=O)NC(=O)[C@H]([C@@H](C)c2c[nH]c3c(OC)cccc23)NC(=O)CN(C)C(=O)[C@H](Cc2ccc(O)cc2)NC(=O)[C@H](Cc2ccc(C(=O)O)cc2)NC(=O)[C@](C)(CO)NC(=O)[C@H](Cc2c[nH]c3c(Cl)cccc23)NC(=O)[C@H](Cc2ccco2)NC(=O)[C@H](CC(N)=O)NC(=O)[C@H]2CCCN2C(=O)[C@H](Cc2c[nH]c3ccccc23)NC(=O)[C@@H]2CNCCN2C(=O)[C@H](Cc2ccncc2)NC1=O
The molecule B1 registered an IC50 of 900 pM.
On the same count and under the same terms, the result for {CH2CO}-[Nle][4Pal][Pip2c]W[dP]N[4Pal][Trp(7-Cl)][αMeS][Phe(4-COOH)]Y[dNMeA][Trp(βS-Me,7-OMe)]C-NH2 (thioether N-14; reading uncertain) [SEQ ID NO. 276] reads 2410 pM.

B2: SEQ ID NO. 217 (peptide)
peptide: {CH2CO}-[Nle]H[Val(3-OH)][Trp(7-aza)][NMeE]N[4Pal][Trp(7-Cl)][αMeS][Phe(4-COOH)]Y[Sar][Trp(βS-Me,7-OMe)]C-NH2
modifications: thioether N-14
SMILES: CCCC[C@@H]1NC(=O)CSC[C@@H](C(N)=O)NC(=O)[C@H]([C@@H](C)c2c[nH]c3c(OC)cccc23)NC(=O)CN(C)C(=O)[C@H](Cc2ccc(O)cc2)NC(=O)[C@H](Cc2ccc(C(=O)O)cc2)NC(=O)[C@](C)(CO)NC(=O)[C@H](Cc2c[nH]c3c(Cl)cccc23)NC(=O)[C@H](Cc2ccncc2)NC(=O)[C@H](CC(N)=O)NC(=O)[C@H](CCC(=O)O)N(C)C(=O)[C@H](Cc2c[nH]c3ncccc23)NC(=O)[C@H](C(C)(C)O)NC(=O)[C@H](Cc2c[nH]cn2)NC1=O
On to B2, for which the IC50 came out at 1000 pM and the Kd^app was found to be 730 pM.

B3: SEQ ID NO. 191 (peptide)
peptide: cyclo([bhcLeu][Nle][4Pal][Pip(5R-OH)]W[dHyp]N[Phe(4-COOH)][Trp(7-Cl)][αMeS][Phe(4-CONH2)][Ala(2-carboxypyrimidin-5-yl)][Sar][Trp(βS-Me,7-OMe)])
SMILES: CCCC[C@@H]1NC(=O)[C@@H]2CC[C@@H](C2)NC(=O)[C@H]([C@@H](C)c2c[nH]c3c(OC)cccc23)NC(=O)CN(C)C(=O)[C@H](Cc2cnc(C(=O)O)nc2)NC(=O)[C@H](Cc2ccc(C(N)=O)cc2)NC(=O)[C@](C)(CO)NC(=O)[C@H](Cc2c[nH]c3c(Cl)cccc23)NC(=O)[C@H](Cc2ccc(C(=O)O)cc2)NC(=O)[C@H](CC(N)=O)NC(=O)[C@H]2C[C@H](O)CN2C(=O)[C@H](Cc2c[nH]c3ccccc23)NC(=O)[C@@H]2CC[C@@H](O)CN2C(=O)[C@H](Cc2ccncc2)NC1=O
As to B3, the Kd^app stood at 180 pM.

B4: SEQ ID NO. 237 (peptide)
peptide: {CH2CO}-[Ahp′][4Pal]S[Trp(βS-Me)][dP]N[Phe(4-COOH)][2Nal][αMeS][Phe(4-COOH)]H[Sar][αMeW]C-NH2
modifications: thioether N-14; reading uncertain; also: printed as cyclo(ClAc-Ahp-4Pal-S-SbMeW-dP-N-Phe4COOH-2Nal-aMeS-Phe4COOH-H-Sar-aMeW-C)-NH2
Molecule B4 registered an IC50 of 13000 pM.
Still for that read-out and setting: the result for {CH2CO}-[LysN3][4Pal][Dap][Trp(βS-Me)][dP]N[4Pal][Trp(7-Cl)][αMeS][Phe(4-COOH)][Phe(4-CH2NH2)][Sar][αMeW]C-NH2 (thioether N-14) [SEQ ID NO. 245] reads 950 pM.

B5: SEQ ID NO. 158 (peptide)
peptide: {CH2CO}-[Nle][4Pal][Pip2c][Trp(7-aza)][NMeE]N[4Pal][Trp(7-Cl)][αMeS][Phe(4-COOH)][TyrOCF3][Sar][Trp(βS-Me,7-OMe)]C-NH2
modifications: thioether N-14; reading uncertain; also: printed as cyclo(ClAc-Nle-4Pal-Pip2c-Trp7az-NMeE-N-4Pal-Trp7Cl-aMeS-Phe4COOH-TyrOCF3-Sar-SbMeW7OMe-C)-NH2
Molecule B5 had a 50% inhibitory concentration (IC50) of 1790 pM.

B6: SEQ ID NO. 166 (peptide)
peptide: cyclo([bhcLeu][FX1][4Pal][NMeS]W[NMeE]N[4Pal][Trp(7-Cl)][αMeS][Phe(4-COOH)]Y[Sar][Trp(βS-Me,7-OMe)])
SMILES: COc1cccc2c([C@H](C)[C@@H]3NC(=O)CN(C)C(=O)[C@H](Cc4ccc(O)cc4)NC(=O)[C@H](Cc4ccc(C(=O)O)cc4)NC(=O)[C@](C)(CO)NC(=O)[C@H](Cc4c[nH]c5c(Cl)cccc45)NC(=O)[C@H](Cc4ccncc4)NC(=O)[C@H](CC(N)=O)NC(=O)[C@H](CCC(=O)O)N(C)C(=O)[C@H](Cc4c[nH]c5ccccc45)NC(=O)[C@H](CO)N(C)C(=O)[C@H](Cc4ccncc4)NC(=O)[C@H](CCC(=O)Nc4cccnc4)NC(=O)[C@@H]4CC[C@@H](C4)NC3=O)c[nH]c12
B6 yielded an IC50 of 500 pM and a Kd^app of 440 pM.

B7: SEQ ID NO. 186 (peptide)
peptide: {CH2CO}-[Nle][4Pal][Pip(5R-OH)]W[NEtdA]N[4Pal][Trp(7-Cl)][αMeS][Phe(4-CONH2)]Y[Sar][Trp(βS-Me,7-OMe)]C-NH2
modifications: thioether N-14
SMILES: CCCC[C@@H]1NC(=O)CSC[C@@H](C(N)=O)NC(=O)[C@H]([C@@H](C)c2c[nH]c3c(OC)cccc23)NC(=O)CN(C)C(=O)[C@H](Cc2ccc(O)cc2)NC(=O)[C@H](Cc2ccc(C(N)=O)cc2)NC(=O)[C@](C)(CO)NC(=O)[C@H](Cc2c[nH]c3c(Cl)cccc23)NC(=O)[C@H](Cc2ccncc2)NC(=O)[C@H](CC(N)=O)NC(=O)[C@@H](C)N(CC)C(=O)[C@H](Cc2c[nH]c3ccccc23)NC(=O)[C@@H]2CC[C@@H](O)CN2C(=O)[C@H](Cc2ccncc2)NC1=O
As for B7, the half-maximal inhibitory concentration (IC50) worked out at 500 pM and the Kd^app is 420 pM.

B8: SEQ ID NO. 255 (peptide)
peptide: {CH2CO}-[Nle][4Pal][Pip(4-aza)][Trp(7-aza)][NMeE]N[4Pal][Trp(7-Cl)][αMeS][Phe(4-COOH)]Y[Sar][Trp(βS-Me,7-OMe)]CGEE-NH2
modifications: thioether N-14
SMILES: CCCC[C@@H]1NC(=O)CSC[C@@H](C(=O)NCC(=O)N[C@@H](CCC(=O)O)C(=O)N[C@@H](CCC(=O)O)C(N)=O)NC(=O)[C@H]([C@@H](C)c2c[nH]c3c(OC)cccc23)NC(=O)CN(C)C(=O)[C@H](Cc2ccc(O)cc2)NC(=O)[C@H](Cc2ccc(C(=O)O)cc2)NC(=O)[C@](C)(CO)NC(=O)[C@H](Cc2c[nH]c3c(Cl)cccc23)NC(=O)[C@H](Cc2ccncc2)NC(=O)[C@H](CC(N)=O)NC(=O)[C@H](CCC(=O)O)N(C)C(=O)[C@H](Cc2c[nH]c3ncccc23)NC(=O)[C@@H]2CNCCN2C(=O)[C@H](Cc2ccncc2)NC1=O
B8 registered a 50% inhibitory concentration (IC50) of 700 pM and a Kd^app of 1010 pM.

B9: SEQ ID NO. 264 (peptide)
peptide: {CH2CO}-[Nle]H[Pip2c][Trp(7-aza)][NMeE]N[4Pal][Trp(7-Cl)][αMeS][Phe(4-COOH)]Y[Sar][Trp(βS-Me,7-OMe)]C-NH2
modifications: thioether N-14; reading uncertain; also: printed as cyclo(ClAc-Nle-H-Pip2c-Trp7az-NMeE-N-4Pal-Trp7Cl-aMeS-Phe4COOH-Y-Sar-SbMeW7OMe-C)-NH2
For B9, the IC50 stood at 1490 pM. That is a single-digit nanomolar value.
On the same count and under the same terms, to {CH2CO}-[Nle][4Pal][NMeS]W[NMeE]N[4Pal][Trp(7-Cl)][αMeS][Phe(4-COOH)][Phe3CONH2][Sar][Trp(βS-Me,7-OMe)]C-NH2 (thioether N-14) [SEQ ID NO. 270] belongs 550 pM.

B10: SEQ ID NO. 226 (peptide)
peptide: {CH2CO}-[Ahp′]Y[AlaPiperaz][Trp(βS-Me)][dP]N[4Pal][Trp(7-Cl)][αMeS][Phe(4-COOH)][3Pal][Sar][αMeW]C-NH2
modifications: thioether N-14; reading uncertain; also: printed as cyclo(ClAc-Ahp-Y-AlaPiperaz-SbMeW-dP-N-4Pal-Trp7Cl-aMeS-Phe4COOH-3Pal-Sar-aMeW-C)-NH2
Molecule B10 showed a half-maximal inhibitory concentration (IC50) of 1160 pM.

B11: SEQ ID NO. 178 (peptide)
peptide: cyclo([bhcLeu][Nle][4Pal][Pip(4-aza)]W[NMeE]N[4Pal][Trp(7-Cl)][αMeS][Phe(4-COOH)]H[Sar][Trp(βS-Me,7-OMe)])
SMILES: CCCC[C@@H]1NC(=O)[C@@H]2CC[C@@H](C2)NC(=O)[C@H]([C@@H](C)c2c[nH]c3c(OC)cccc23)NC(=O)CN(C)C(=O)[C@H](Cc2c[nH]cn2)NC(=O)[C@H](Cc2ccc(C(=O)O)cc2)NC(=O)[C@](C)(CO)NC(=O)[C@H](Cc2c[nH]c3c(Cl)cccc23)NC(=O)[C@H](Cc2ccncc2)NC(=O)[C@H](CC(N)=O)NC(=O)[C@H](CCC(=O)O)N(C)C(=O)[C@H](Cc2c[nH]c3ccccc23)NC(=O)[C@@H]2CNCCN2C(=O)[C@H](Cc2ccncc2)NC1=O
The molecule B11 gave a Kd^app of 290 pM.
